Activity data for one molecule are collected here from patent publication US20250277199, “NOVEL CRISPR-CAS NUCLEASES FROM METAGENOMES” (Brain Biotech AG, published 2025).

Bounds are passed on as bounds.

The target of the series is T1, BMC15 (uncultured bacterium (metagenome)).
T1 chain: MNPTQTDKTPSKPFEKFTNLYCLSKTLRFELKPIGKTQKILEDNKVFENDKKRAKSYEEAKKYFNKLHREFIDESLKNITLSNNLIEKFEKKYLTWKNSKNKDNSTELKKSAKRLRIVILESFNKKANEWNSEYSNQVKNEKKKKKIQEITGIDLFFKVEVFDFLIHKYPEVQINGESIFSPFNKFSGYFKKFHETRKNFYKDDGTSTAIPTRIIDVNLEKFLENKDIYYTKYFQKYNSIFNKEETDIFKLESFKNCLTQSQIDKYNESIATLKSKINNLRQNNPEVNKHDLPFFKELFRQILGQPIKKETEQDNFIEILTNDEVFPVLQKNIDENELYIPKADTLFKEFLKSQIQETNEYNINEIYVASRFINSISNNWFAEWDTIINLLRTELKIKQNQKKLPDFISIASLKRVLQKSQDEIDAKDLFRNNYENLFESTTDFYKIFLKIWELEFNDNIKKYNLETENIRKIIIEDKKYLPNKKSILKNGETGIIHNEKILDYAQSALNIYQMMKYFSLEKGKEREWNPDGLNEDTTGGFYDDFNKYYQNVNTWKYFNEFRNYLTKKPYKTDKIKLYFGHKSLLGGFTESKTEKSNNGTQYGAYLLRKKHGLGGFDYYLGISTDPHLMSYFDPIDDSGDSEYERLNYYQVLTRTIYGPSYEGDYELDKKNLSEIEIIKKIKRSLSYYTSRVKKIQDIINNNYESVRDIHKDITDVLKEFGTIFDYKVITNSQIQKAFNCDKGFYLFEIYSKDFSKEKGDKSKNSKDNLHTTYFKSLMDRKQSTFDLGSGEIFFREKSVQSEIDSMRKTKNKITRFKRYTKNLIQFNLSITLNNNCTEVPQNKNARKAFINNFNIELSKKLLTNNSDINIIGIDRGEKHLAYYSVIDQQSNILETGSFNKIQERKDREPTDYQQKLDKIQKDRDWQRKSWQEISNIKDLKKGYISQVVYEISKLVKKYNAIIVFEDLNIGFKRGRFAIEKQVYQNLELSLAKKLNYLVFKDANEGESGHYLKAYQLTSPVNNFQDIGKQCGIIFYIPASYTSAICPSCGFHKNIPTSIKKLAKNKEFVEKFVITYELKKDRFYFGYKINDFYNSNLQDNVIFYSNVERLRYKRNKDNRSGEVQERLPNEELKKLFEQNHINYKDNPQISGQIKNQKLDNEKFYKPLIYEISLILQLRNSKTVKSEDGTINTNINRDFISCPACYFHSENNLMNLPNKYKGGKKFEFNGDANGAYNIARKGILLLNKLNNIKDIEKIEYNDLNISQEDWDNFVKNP
Nature of the series: cell_activity; PAM not stated; E. coli depletion, 30 C. Summed up:
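E. coli carrying arabinose-induced (0.2%) BMC nuclease, grown at 30° C., made electrocompetent and electroporated with 50-100 ng plasmid carrying gRNA against malQ. Transformants plated on selective M9-glucose agar with kanamycin/ampicillin (± nourseothricin), and growth scored after 48 h at 30° C.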

B1: malQ gRNA (BMC stem-loop + 24 nt spacer) ; malQ protospacer (ssRNA ; dsDNA)
RNA: GAUUUCUACUAUUGUAGAUGUGGCGGUACGUUGAUGCAUCGCG
DNA 1: GTGGCGGTACGTTGATGCATCGCG
DNA 2: CGCGATGCATCAACGTACCGCCAC
Consider B1, for which the activity is greater than 99.9 % colony reduction.
